This is an account of results in article PMC4332690.

Assay [1] addresses PIDD death domain (PIDD-DD), human, residues 778-883 (human) (UniProt Q9HB75). In words: native MS; nanoESI-MS, positive ion mode; 15 μM purified complex in 50 mM ammonium acetate pH 7.8.
Assay [2] shares this target. In words: SEC-MALS; as a1 but total protein loaded 1.5 mg/mL (lowest concentration; some subunit dissociation). Background: Size exclusion chromatography separates by hydrodynamic size, large species first.

UniProt Q9HB75, sequence (Q9HB75 778-883): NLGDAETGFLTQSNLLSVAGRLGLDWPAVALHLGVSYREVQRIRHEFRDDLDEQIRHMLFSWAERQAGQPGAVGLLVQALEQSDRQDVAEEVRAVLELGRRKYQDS

In assay [1], “RAIDD death domain (RAIDD-DD), human, residues 99-199, wild type (from UniProt P78560 99-199) (domain or fragment)” gave a population of the 5:5 complex of 28%, a population of the 6:5 complex of 43%, a population of the 7:5 complex of 29% and a stoichiometry N (RAIDD-DD per PIDD-DD (5:5)) of 1. In assay [1], this substance registered a stoichiometry N (RAIDD-DD per PIDD-DD (6:5)) of 1.2 and a stoichiometry N (RAIDD-DD per PIDD-DD (7:5)) of 1.4.
Substance “RAIDD-DD (E188K) (from UniProt P78560 99-199) (domain or fragment)” gave a stoichiometry N (RAIDD-DD per PIDD-DD (R4:P4)) in assay [2] of 1. Further, in assay [1], the population of the 5:4 complex was 13%, the population of the 5:5 complex came out at 87%, the stoichiometry N (RAIDD-DD per PIDD-DD (5:4)) came to 1.25 and the stoichiometry N (RAIDD-DD per PIDD-DD (5:5)) was 1.
